Measured values taken from article PMC5932034, “Structures of chaperone-substrate complexes docked onto the export gate in a type III secretion system” (Nature Communications, 2018).

What was measured:
Details in all cases: both partners purified
[1] = biological target: T1, cytoplasmic domain of Salmonella enterica serovar Typhimurium FlhA (FlhA^C) (Salmonella enterica serovar Typhimurium …, UniProt P40729 362-692); experiment: ITC; FlhA^C and variants (0.1–0.2 mM) in the cell, FliT-FliD, FliS-FliC and variants (1.0–2.0 mM) in the syringe; 25 °C; 50 mM NaPi pH 6.8, 300 mM NaCl, 0.05% NaN3; one-site binding model
T1 construct: FlhA, globular cytoplasmic domain, Salmonella enterica serovar Typhimurium ST313, residues 362-692 (36.4 kDa); also called export gate platform protein; source: E. coli BL21(DE3), purified (Ni Sepharose, TEV tag removal, Superdex 75)
T1 sequence: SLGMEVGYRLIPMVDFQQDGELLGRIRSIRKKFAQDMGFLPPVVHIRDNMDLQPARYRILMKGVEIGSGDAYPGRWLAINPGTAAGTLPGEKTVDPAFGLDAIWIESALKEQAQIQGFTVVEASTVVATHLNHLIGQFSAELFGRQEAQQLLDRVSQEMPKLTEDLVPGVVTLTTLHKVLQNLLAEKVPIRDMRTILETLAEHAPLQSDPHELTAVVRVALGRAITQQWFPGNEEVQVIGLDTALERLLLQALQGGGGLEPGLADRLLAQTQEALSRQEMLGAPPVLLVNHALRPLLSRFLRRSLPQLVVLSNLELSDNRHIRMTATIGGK

[2] = biological target: T2, FliS (UniProt P26609 1-135); experiment: crystal structure; ternary complexes of FlhA^C with the fused chaperone–substrate constructs; proteins at 10 g/L
T2 construct: FliS, flagellar chaperone of flagellin FliC; Used free in the NMR titration; in the crystal structure it stands as the FliS part of the fused chain m10; also called flagellar chaperone FliS; substrate-free FliS; source: E. coli BL21(DE3), purified (Ni Sepharose, TEV tag removal, Superdex 75)
T2 sequence: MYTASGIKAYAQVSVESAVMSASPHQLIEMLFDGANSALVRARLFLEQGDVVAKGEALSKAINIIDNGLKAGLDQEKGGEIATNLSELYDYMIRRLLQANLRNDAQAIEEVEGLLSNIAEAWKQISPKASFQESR

[3] = biological target: T3, FliT (Salmonella enterica serovar Typhimurium …, UniProt P0A1N2 1-122); experiment: as above
T3 construct: FliT, flagellar chaperone of FliD, Salmonella enterica serovar Typhimurium ST313; Used free in the NMR titration; in the structures it stands as the FliT part of the fused chain m9; also called flagellar chaperone FliT; substrate-free FliT; source: E. coli BL21(DE3), purified (Ni Sepharose, TEV tag removal, Superdex 75)
T3 sequence: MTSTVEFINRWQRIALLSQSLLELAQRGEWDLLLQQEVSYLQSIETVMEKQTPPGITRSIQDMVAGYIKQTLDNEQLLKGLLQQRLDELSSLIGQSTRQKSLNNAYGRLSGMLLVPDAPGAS

[4] = biological target: T1, cytoplasmic domain of Salmonella …; experiment: NMR titration; unlabelled partner added to isotopically labelled FlhA^C (and unlabelled FlhA^C to labelled chaperone–substrate complex); 25 °C; 50 mM NaPi pH 6.8, 300 mM NaCl, 0.05% NaN3; typically 0.3 mM labelled protein

B1: FliS−FliC chaperone–substrate complex (non-fused) (complex)
chain 1: T2 sequence
chain 2: […]
notes: FliS; FliC, flagellin; Complex formed beforehand and added to FlhA^C; source: E. coli BL21(DE3), purified (Ni Sepharose, TEV tag removal, Superdex 75)
Kd [1]: ~8 µM

B2: FliC^C (FliC residues 454–495) (domain or fragment)
chain: IEDSDYATEVSNMSRAQILQQAGTSVLAQANQVPQNVLSLLR
notes: FliC^C: flagellin FliC residues 454-495;; source: E. coli BL21(DE3), purified; stands as a part of the fused chain m10
binding result [2]: binds

B3: FliD^C (last 40 C-terminal residues of FliD) (domain or fragment)
chain: SIDETVARYKAQFTQLDTMMSKLNNTSSYLTQQFTAMNKS
notes: source: E. coli BL21(DE3), purified; stands as a part of the fused chain m9
binding result [3]: binds

B4: FlgN (natural protein)
chain: MTRLSEILDQMTTVLNDLKTVMDAEQQQLSVGQINGSQLQRITEEKSSLLATLDYLEQQRRLEQNAQRSANDDIAERWQAITEKTQHLRDLNQHNGWLLEGQIERNQQALEVLKPHQEPTLYGADGQTSVSHRGGKKISI
notes: FlgN, chaperone of FlgK and FlgL, Salmonella enterica serovar Typhimurium ST313; also called chaperone FlgN; FlgN without substrate; source: E. coli BL21(DE3), purified (Ni Sepharose, TEV tag removal, Superdex 75)
binding result [4]: binds
